From patent US20170233490A1 (Hoffmann-La Roche, published 2017)

Columns and labels:
Assay in all cases: ELISA, coated antigen
TgSlyDΔIF = target: T1, TgSlyDΔIF
T1 construct: scaffold without hairpin insert, negative control
T1 chain: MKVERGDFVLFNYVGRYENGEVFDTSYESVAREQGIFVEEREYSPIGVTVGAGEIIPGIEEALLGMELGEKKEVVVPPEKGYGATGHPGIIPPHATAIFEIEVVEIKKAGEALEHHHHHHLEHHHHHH
Procedure: (§1) For the ELISA the screening an antigen down format was used. […] Hybridoma Supernatant was added to the plates and incubated for 1 h at room temperature. Bound antibody was detected with a HRP-labeled F(ab′)₂ goat anti-mouse Fcγ (Dianova) and ABTS (Roche) was used as a HRP-substrate.
(§2) As negative controls the scaffold proteins TtSlyDcas and TgSlyDΔIF were used.

[1] = target: T2, human HER1 Extracellular Domain (ECD) (human, UniProt P00533 25-645)
T2 construct: also called Her1 ECD; HER1-ECD
Procedure: as §1, §2

TtSlyDcas-Her3 = target: T3, TtSlyDcas-Her3
T3 chain: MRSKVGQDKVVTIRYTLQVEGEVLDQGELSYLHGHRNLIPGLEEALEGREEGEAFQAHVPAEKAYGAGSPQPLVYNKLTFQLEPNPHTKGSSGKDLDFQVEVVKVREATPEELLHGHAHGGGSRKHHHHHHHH
Procedure: as §1, §2

[2] = target: T4, human HER3 Extracellular Domain (ECD) (human, UniProt P21860 20-643)
T4 construct: human recombinant, 68 kDa; 'closed' conformation without ligand; also called Her3 ECD; Her-3 ECD
Procedure: as §1, §2

TgSlyDser-Her3 = target: T5, TgSlyDser-Her3
T5 chain: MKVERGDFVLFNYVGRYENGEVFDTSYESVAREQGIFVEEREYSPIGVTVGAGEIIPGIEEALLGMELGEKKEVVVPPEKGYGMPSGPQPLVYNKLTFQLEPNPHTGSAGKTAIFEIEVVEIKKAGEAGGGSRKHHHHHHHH
Procedure: as §1, §2

ELISA signal (TgSlyDΔIF): 0.02
ELISA signal [1]: 0.018
ELISA signal (TtSlyDcas-Her3): 3.13
ELISA signal [2]: 3.15
ELISA signal (TgSlyDser-Her3): 3.16
B1: anti-HER3/HER4 antibody M-05-74 (antibody, V domains shown)
VH: QVQLQQSGAELAKPGASVKMSCKTSGYTLTDYWIHWVKQRPGQGLEWIGYINPYTGYTESNQKFKDKATLTADKSSNTAYIQLSSLTSEDSAVYYCARPYYYGDYWGQGTTLTVSS
VL: QIVLTQSPAIMSASPGERVTITCSASSSVSYMHWFQQKPGTSPKLLIYSTSNLASGVPARFSGSGSGTSYSLTISRMEAEDAATYYCQQRSSYPFTFGSGTKLEIK
notes: murine monoclonal IgG from hybridoma (supernatant or purified), bivalent; also called M-074; M-5-74
